The text below walks through data of patent US7399847 (GENERAL HOSPITAL, dated 2008).

First the molecules themselves.
B6: P-selectin:immunoglobulin fusion protein (Fc fusion, UniProt P16109 42-321, looked up)
chain: WTYHYSTKAYSWNISRKYCQNRYTDLVAIQNKNEIDYLNKVLPYYSSYYWIGIRKNNKTWTWVGTKKALTNEAENWADNEPNNKRNNEDCVEIYIKSPSAPGKWNDEHCLKKKHALCYTASCQDMSCSKQGECLETIGNYTCSCYPGFYGPECEYVRECGELELPQHVLMNCSHPLGNFSFNSQCSFHCTDGYQVNGPSKLECLASGIWTNKPPQCLAAQCPPLKIPERGNMTCLHSAKAFQHQSSCSFSCEEGFALVGPEVVQCTASGVWTAPAPVCKA
notes: domain: lectin, EGF-related, and first two short consensus repeat related domains; Made in COS cells; captured from supernatant on wells coated with goat anti-human IgG Fc; also called soluble P-selectin; P-selectin Ig chimera; not shown: hinge, CH2, and CH3 domains of human IgG1

Assay [1] has as its target B6. Put plainly: static binding assay, transfected COS cells (with FTVIIh) on plastic coated with P-selectin Ig.
Protocol: The cells were then loaded with 100 µl ^51CrO_4 (1 mCi/ml; DuPont, Boston, Mass.) in 0.9% NaCl plus 100 ml medium by incubating them at 37° C. for 1 hour. Loaded cells were washed twice in PBS and resuspended in 0.2% BSA, 0.15 M NaCl, 3 mM CaCl_2. Variation in labeling rate (counts incorporated per cell) between cells prepared in parallel with the same batch of labeled chromate was typically minimal. […] After the plate was washed twice with PBS, additional protein-binding sites were blocked by an overnight incubation with 200 µl 3% BSA in PBS. The plate was washed with PBS four times and incubated with 200 µl of fusion protein supernatants for 2 hours. Following three PBS washes and one additional wash (in 0.2% BSA, 0.15 M NaCl, 3 mM CaCl_2), 2×10^5 cells/well (in 200 µl 0.2% BSA, 0.15 M NaCl, 3 mM CaCl_2) were added and allowed to bind for 15 minutes at room temperature while the plate rotated on a rotary platform (80 rpm). The plate was washed three times by filling the wells with 200 µl 0.15 M NaCl/3 mM CaCl_2 and then inverting the plate. Adherent cells were lysed by the addition of 200 µl 2% SDS, and labeled chromate was counted with a gamma ray spectrometer.
Assay [2] has as its target B6. Nature of the assay: adhesion of 51Cr-labelled transfected COS cells to immobilized P-selectin:Ig.
Protocol: (§1) To assess the importance of these residues, the tyrosines were converted to phenylalanine (FIG. 9A). In a second peptide, the threonines were converted to alanines. In addition, a third peptide, containing a quintuple mutation, was prepared such that both conversions were made in a single peptide. […] Cells expressing the resulting chimeras were tested for their ability to bind to immobilized P-selectin (FIG. 9A). […] Expression of the flu tag or sLe^x epitope was not affected in these cells.
The target of assay [3] is T1, PSGL-1 amino-terminal deletion beginning at precursor P78 (UniProt Q14242 78-412).
T1 construct: range 78-end (end not numbered), on cells; also called further deletion of PSGL
T1 sequence: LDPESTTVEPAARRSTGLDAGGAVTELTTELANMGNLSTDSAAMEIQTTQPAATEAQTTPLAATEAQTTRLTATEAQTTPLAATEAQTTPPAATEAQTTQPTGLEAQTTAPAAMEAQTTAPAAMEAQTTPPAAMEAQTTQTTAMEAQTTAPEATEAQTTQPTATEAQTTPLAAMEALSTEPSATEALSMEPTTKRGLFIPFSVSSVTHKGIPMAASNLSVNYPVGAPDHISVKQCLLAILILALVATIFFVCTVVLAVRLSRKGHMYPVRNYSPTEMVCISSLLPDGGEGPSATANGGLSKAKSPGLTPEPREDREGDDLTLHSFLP
The assay is described as above.
Protocol: as §1

Assay [4] deals with T2, PSGL-1 amino-terminal deletion beginning at precursor E58 (UniProt Q14242 58-412).
T2 construct: range 58-end (end not numbered), on cells; also called removal of the first 40 amino acids of the N-terminus
T2 sequence: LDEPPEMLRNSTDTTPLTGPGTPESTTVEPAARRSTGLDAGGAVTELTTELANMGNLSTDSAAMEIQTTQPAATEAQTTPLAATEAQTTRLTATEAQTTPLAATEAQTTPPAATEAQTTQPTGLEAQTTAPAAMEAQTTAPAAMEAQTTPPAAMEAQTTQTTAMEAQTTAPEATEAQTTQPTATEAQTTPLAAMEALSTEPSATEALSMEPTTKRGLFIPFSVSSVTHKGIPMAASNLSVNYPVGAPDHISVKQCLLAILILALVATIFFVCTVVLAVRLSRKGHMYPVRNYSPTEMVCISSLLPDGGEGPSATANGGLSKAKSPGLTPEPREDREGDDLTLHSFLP
The assay is described as above.
Protocol: as §1

The target in assay [5] is T3, PSGL-1 amino-terminal deletion beginning at precursor R38 (UniProt Q14242 38-412).
T3 construct: range 38-end (end not numbered), on cells; also called removal of the first 20 amino acids of the N-terminus of the mature PSGL-1
T3 sequence: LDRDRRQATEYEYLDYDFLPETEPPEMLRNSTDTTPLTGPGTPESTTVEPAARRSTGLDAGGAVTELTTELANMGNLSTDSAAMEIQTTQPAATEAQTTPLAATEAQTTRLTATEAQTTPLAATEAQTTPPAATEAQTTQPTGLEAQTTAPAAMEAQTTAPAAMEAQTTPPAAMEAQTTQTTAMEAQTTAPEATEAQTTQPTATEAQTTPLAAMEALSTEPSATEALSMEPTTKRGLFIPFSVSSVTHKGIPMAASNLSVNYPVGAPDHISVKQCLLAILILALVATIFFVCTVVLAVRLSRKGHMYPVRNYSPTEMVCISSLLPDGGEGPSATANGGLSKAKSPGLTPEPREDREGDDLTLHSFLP
The assay is described as above.
Protocol: as §1

In assay [6] the target is T4, PSGL-1 deletion mutant lacking the amino terminal 100 residues (apical domain) (UniProt Q14242 118-412).
T4 construct: range 118-end (end not numbered), on cells; Cotransfected with FTVII; also called Xba1 (label inferred from the order of the endpoints)
T4 sequence: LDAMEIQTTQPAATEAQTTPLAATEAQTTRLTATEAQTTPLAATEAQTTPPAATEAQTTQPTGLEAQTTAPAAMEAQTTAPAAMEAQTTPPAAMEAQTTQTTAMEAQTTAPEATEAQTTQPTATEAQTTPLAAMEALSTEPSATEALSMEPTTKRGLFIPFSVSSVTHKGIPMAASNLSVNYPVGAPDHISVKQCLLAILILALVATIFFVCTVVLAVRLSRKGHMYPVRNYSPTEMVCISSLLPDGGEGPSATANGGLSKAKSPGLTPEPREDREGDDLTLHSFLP
The assay is described as above.
Protocol: as §1

For assay [7], the target named is T5, PSGL-1 residues 38-57 with tyrosines converted to phenylalanine, on the truncated PSGL-1 lacking the apical … (UniProt Q14242 118-412).
T5 construct: domain: truncated PSGL-1 lacking the apical domain, on cells
T5 sequence: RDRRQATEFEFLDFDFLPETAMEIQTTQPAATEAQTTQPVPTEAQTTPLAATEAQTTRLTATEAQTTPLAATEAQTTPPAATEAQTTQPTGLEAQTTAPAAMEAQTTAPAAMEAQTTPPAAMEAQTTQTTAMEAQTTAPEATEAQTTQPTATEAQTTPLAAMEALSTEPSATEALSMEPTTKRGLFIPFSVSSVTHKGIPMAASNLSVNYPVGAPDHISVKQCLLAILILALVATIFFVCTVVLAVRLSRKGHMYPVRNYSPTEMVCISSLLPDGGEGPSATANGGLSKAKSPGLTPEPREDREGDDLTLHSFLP
Described as above.
Protocol: as §1

For assay [8], the target named is T6, PSGL-1 amino-terminal deletion beginning at precursor A98 (UniProt Q14242 98-412).
T6 construct: range 98-end (end not numbered), on cells; also called further deletion of PSGL
T6 sequence: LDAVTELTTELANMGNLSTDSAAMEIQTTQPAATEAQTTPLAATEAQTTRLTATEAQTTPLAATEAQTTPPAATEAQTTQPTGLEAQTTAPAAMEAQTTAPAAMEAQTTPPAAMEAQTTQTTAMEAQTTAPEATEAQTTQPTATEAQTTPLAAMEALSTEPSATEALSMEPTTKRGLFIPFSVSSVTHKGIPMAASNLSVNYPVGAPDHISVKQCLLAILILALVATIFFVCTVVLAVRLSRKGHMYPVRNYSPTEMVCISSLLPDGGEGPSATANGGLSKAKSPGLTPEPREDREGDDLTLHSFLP
Described as above.
Protocol: as §1

B1: Factor VIII-CD43 synthetic P-selectin ligand (designed binder)
chain: TGDYYEDSYEDISITTNSPETSSRTSGAPVTTAASSLETSRGTSGPPLTMATVSLETSKGTSGPPVTMATDSLETSTGTTGPPVTMTTGSLEPSSGASGPQVSS
modifications: tyrosine sulfation site of Factor VIII; sLe^x (FTVIIh cotransfected)
notes: also called CD43-F8; not shown: flu hemagglutinin oligopeptide tag
Consider B1, for which, in assay [1], the binding result is “binds”.

B2: PSGL-1 residues 38-57 (wildtype) appended to the CD43 mucin core (ligand, not shown: small tags and cut ends)
chain: RDRRQATEYEYLDYDFLPETITTNSPETSSRTSGAPVTTAASSLETSRGTSGPPLTMATVSLETSKGTSGPPVTMATDSLETSTGTTGPPVTMTTGSLEPSSGASGPQVSS
modifications: as the filing concludes: sulfated tyrosines at 46, 48 and 51; sLe^x on threonines 44 and 57
notes: Cotransfected with FTVII
Regarding B2, in assay [2], the binding result is “binds”.

B3: PSGL-1 residues 38-57 with threonines converted to alanines, on the CD43 repeat elements and transmembrane domain (ligand, not shown: small tags and cut ends)
chain: RDRRQAAEYEYLDYDFLPEAITTNSPETSSRTSGAPVTTAASSLETSRGTSGPPLTMATVSLETSKGTSGPPVTMATDSLETSTGTTGPPVTMTTGSLEPSSGASGPQVSS
Consider B3, for which, in assay [2], the binding result is listed as “binds”.

B4: PSGL-1 residues 38-57 with tyrosines converted to phenylalanine, on the CD43 repeat elements and transmembrane domain (ligand, not shown: small tags and cut ends)
chain: RDRRQATEFEFLDFDFLPETITTNSPETSSRTSGAPVTTAASSLETSRGTSGPPLTMATVSLETSKGTSGPPVTMATDSLETSTGTTGPPVTMTTGSLEPSSGASGPQVSS
B4: the binding result in assay [2] is listed as “no binding”.

B5: PSGL-1-NH2/CD43 rep. (ligand, not shown: small tags and cut ends)
chain: LQLWDTWADEAEKALGPLLARDRRQATEYEYLDYDFLPETEPPEMLRNSTDTTPLTGPGTPESTTVEPAARRSTGLDAGGAVTELTTELANMGNLSTDSAEFITTNSPETSSRTSGAPVTTAASSLETSRGTSGPPLTMATVSLETSKGTSGPPVTMATDSLETSTGTTGPPVTMTTGSLEPSSGASGPQVSS
notes: range mature amino terminus-117; Cotransfected with FTVIIh; also called PSGL-1-NH2/CD43 repeats; PSGL-1 apical domain on the CD43 repeat region
As for B5, the binding result in assay [2] is on record as “binds”. As for B6, the binding result in assay [3] was “no binding”; in assay [4], “no binding”; in assay [5], “binds”; in assay [6], “no binding”; in assay [7], “no binding”; in assay [8] it was “no binding”.
